Where “and” joins values, the source holds several entries; their conditions need not be identical. Equal entries are not always repeated.
Columns and labels:
[1] = molecular target: vinculin D1 first subdomain (residues 1-257) (human) (UniProt P18206); assay: native gel or EMSA
[2] = molecular target: vinculin D1D2 (residues 1-484) (human) (UniProt P18206); assay: native gel or EMSA
[3] = molecular target: full-length human vinculin (HV) (human) (UniProt P18206); assay: solid-phase binding assay
[4] = molecular target: vinculin D1 first subdomain (residues 1-257) (human) (UniProt P18206); assay: SEC-MALS
[5] = molecular target: vinculin D1D4 (residues 1-834) (human) (UniProt P18206); assay: SEC-MALS
[6] = molecular target: vinculin D1D2 (residues 1-484) (human) (UniProt P18206); assay: SEC-MALS
[7] = molecular target: vinculin D1D2 (residues 1-484) (human) (UniProt P18206); assay: SEC-MALS; remark: listed apart in the source

Row | stoichiometry N [7] | Substance | stoichiometry N [1] | stoichiometry N [2] | stoichiometry N (D1D2:AVBS1-3 molar ratio) [2] | stoichiometry N ([2]; scale: AVBS1-3 per D1D2) | EC50 [3] | stoichiometry N (molar ratio, printed as AVBS1-3:D1) [4] | stoichiometry N [5] | stoichiometry N [6]
1 |  | IpaA derivative containing VBS1-3 (AVBS1-3) (from UniProt P18010 1-633) (domain or fragment) | 1 D1:AVBS1-3 | 1 D1D2:AVBS1-3 | 3 | 2 | 6.1 nM | 1 and 2 and 3 | 1 D1D4:AVBS1-3 | 
2 | 2 and 3 | vinculin D1D2 (residues 1-484) (from UniProt P18206 1-484) (domain or fragment) |  |  |  |  |  |  |  | 2
3 |  | vinculin D1D4 (residues 1-834) (from UniProt P18206 1-834) (domain or fragment) |  |  |  |  |  |  | 2 and 3 | 
4 |  | IpaA derivative containing VBS1-2 (AVBS1-2) (from UniProt P18010 1-633) (domain or fragment) | 1 D1:AVBS1-2 | 1 D1D2:AVBS1-2 |  |  | 3.7 nM |  |  | 1 D1D2:AVBS1-2
